The target of assay [1] is recombinant fragment of human VE-cadherin extracellular region, CAD 1-4 fragment (Asp48-Glu478, preceded by Met), SEQ ID NO: 4 (human) (UniProt P33151). In words: sandwich ELISA, BV9 capture, rabbit polyclonal detection; CAD1-4 at 0.63 ng/mL; first replicate.
For assay [2] the target is unchanged. In words: sandwich ELISA, BV9 capture, rabbit polyclonal detection; CAD1-4 at 2.5 ng/mL; mean OD minus OD at 0 ng/mL.
For assay [3] the target is unchanged. In words: sandwich ELISA, BV9 capture, rabbit polyclonal detection; CAD1-4 at 0.63 ng/mL.
The target is the same in assay [4]. In words: sandwich ELISA, BV9 capture, rabbit polyclonal detection; CAD1-4 at 0.63 ng/mL; mean OD minus OD at 0 ng/mL.
Assay [5] has the same target. Kind of assay: sandwich ELISA, BV9 capture, rabbit polyclonal detection; CAD1-4 at 10 ng/mL.
For assay [6] the target is unchanged. In words: sandwich ELISA, BV9 capture, rabbit polyclonal detection; CAD1-4 at 2.5 ng/mL; first replicate.
Assay [7] has the same target. In words: sandwich ELISA, BV9 capture, rabbit polyclonal detection; CAD1-4 at 10 ng/mL; second replicate.
Assay [8] shares this target. In words: sandwich ELISA, BV9 capture, rabbit polyclonal detection; CAD1-4 at 5 ng/mL; mean OD minus OD at 0 ng/mL.
Assay [9] shares this target. In words: sandwich ELISA, BV9 capture, rabbit polyclonal detection; CAD1-4 at 1.25 ng/mL.
For assay [10] the target is unchanged. Kind of assay: sandwich ELISA, BV9 capture, rabbit polyclonal detection; CAD1-4 at 5 ng/mL; first replicate.
The target is the same in assay [11]. In words: sandwich ELISA, BV9 capture, rabbit polyclonal detection; CAD1-4 at 1.25 ng/mL; second replicate.
Assay [12] shares this target. In words: sandwich ELISA, BV9 capture, rabbit polyclonal detection; CAD1-4 at 5 ng/mL.
Assay [13] shares this target. In words: sandwich ELISA, BV9 capture, rabbit polyclonal detection; CAD1-4 at 10 ng/mL; mean OD minus OD at 0 ng/mL.

Chain of UniProt P33151 (P33151 other isoform, or with tags, fused parts or gaps limits assumed): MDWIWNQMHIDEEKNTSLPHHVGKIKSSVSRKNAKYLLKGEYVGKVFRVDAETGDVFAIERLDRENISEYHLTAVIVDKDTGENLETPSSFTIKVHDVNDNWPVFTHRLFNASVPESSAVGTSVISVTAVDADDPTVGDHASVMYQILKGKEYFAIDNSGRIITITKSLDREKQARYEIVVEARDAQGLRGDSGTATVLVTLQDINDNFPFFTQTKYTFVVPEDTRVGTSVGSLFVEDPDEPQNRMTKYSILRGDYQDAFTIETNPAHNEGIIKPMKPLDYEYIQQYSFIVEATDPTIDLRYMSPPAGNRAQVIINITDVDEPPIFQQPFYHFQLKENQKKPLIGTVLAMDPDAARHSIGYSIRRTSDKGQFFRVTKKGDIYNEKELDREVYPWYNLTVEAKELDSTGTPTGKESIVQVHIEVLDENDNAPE

Take “anti-VEcadherin mouse mAb, clone BV9 (Abcam, product datasheet ab7047) (antibody)”: the OD amounted to 0.975 OD in [1]; 1.26 OD in assay [6]; 2 OD in [7]; 1.34 OD in [10]; 0.932 OD in assay [11]. The Corr. OD in assay [2] turned out to be 0.288 OD; in assay [4], 0.051 OD; in assay [8], 0.556 OD; in [13] it was 1.06 OD. The OD1 in assay [3] is 0.794 OD; in assay [9] it was 0.867 OD. In addition, the OD2 amounted to 0.789 OD in assay [3] and 0.829 OD in assay [9]. Further, the mean OD worked out at 0.792 OD in [3], 1.95 OD in assay [5], 0.848 OD in assay [9] and 1.4 OD in assay [12].

The record behind these values is patent publication US20100120171A1.
